Measured values: patent US20070148185A1

B1: Plasmodium falciparum Fasciclin Related Adhesive Protein (FRAP), recombinant full length protein (amino acids 1-205) with C-terminal polyhistidine tag (protein)
chain: MKNRFYYNLIIKRLYTRSGGLRKPQKVTNDPESINRKVYWCFEHKPVKRTIINLIYSHNELKIFSNLLNHPTVGSSLIHELSLDGPYTAFFPSNEAMQLINIESFNKLYNDENKLSEFVLNHVTKEYWLYRDLYGSSYQPWLMYNEKREAPEKLRNLLNNDLIVKIEGEFKHCNHSIYLNGSKIIRPNMKCHNGVVHIVDKPIIF
B2: FRAP2, truncated P. falciparum FRAP containing amino acids 1-87, with C-terminal polyhistidine tag (protein)
chain: MKNRFYYNLIIKRLYTRSGGLRKPQKVTNDPESINRKVYWCFEHKPVKRTIINLIYSHNELKIFSNLLNHPTVGSSLIHELSLDGPY

What was measured:
[1] = target: heparan sulfate proteoglycans (HSPG) expressed on the surface of HepG2 human liver cells (human); assay: 100 nM protein on HepG2 cells pretreated with Heparinase I 1.25 U/ml, against non-treated cells
[2] = target: heparan sulfate proteoglycans (HSPG) expressed on the surface of HepG2 human liver cells (human); assay: 100 nM protein on HepG2 cells pretreated with Heparinase I 2.50 U/ml, against non-treated cells
[3] = target: heparan sulfate proteoglycans (HSPG) expressed on the surface of HepG2 human liver cells (human); assay: 100 nM protein on HepG2 cells pretreated with Heparinase I 5.00 U/ml, against non-treated cells
[4] = target: heparan sulfate proteoglycans (HSPG) expressed on the surface of HepG2 human liver cells (human); assay: cell-based or functional assay
[5] = target: heparan sulfate proteoglycans (HSPG) expressed on the surface of HepG2 human liver cells (human); assay: HepG2 cell binding assay with soluble heparin as competitive inhibitor
[6] = target: heparan sulfate proteoglycans (HSPG) expressed on the surface of HepG2 human liver cells (human); assay: binding of His-tagged protein to fixed HepG2 cells, anti-polyhistidine detection

Molecule | Inhibition of Binding (%) [1] [%] | Inhibition of Binding (%) [2] [%] | Inhibition of Binding (%) [3] [%] | % Inhibition of invasion of HepG2 cells by P. falciparum sporozoites, FRAP at 10 µg/ml [4] [%] | % Inhibition of invasion of HepG2 cells by P. falciparum sporozoites, FRAP at 20 µg/ml [4] [%] | reduction of binding activity in the presence of free heparin [5] [%] | % Inhibition of invasion of HepG2 cells by P. falciparum sporozoites, FRAP2 at 10 µg/ml [4] [%] | % Inhibition of invasion of HepG2 cells by P. falciparum sporozoites, FRAP2 at 20 µg/ml [4] [%] | loss of binding activity in comparison to the full length protein [6] [%]
recombinant Circumsporozoite (CS) protein with a polyhistidine tag at the carboxyl terminus | 48.1 | 57.7 | 59.1 |  |  |  |  |  | 
B1 | 39.4 | 42.1 | 47.8 | 80.9 | 89.5 | 55 |  |  | 
B2 | 42.3 | 41.4 | 49.4 |  |  | 60 | 88.1 | 92.4 | 50
